These substances were tested against mk03_mouse Mapk3 (UniProt Q63844).
Chain of mk03_mouse Mapk3 (Q63844 whole entry): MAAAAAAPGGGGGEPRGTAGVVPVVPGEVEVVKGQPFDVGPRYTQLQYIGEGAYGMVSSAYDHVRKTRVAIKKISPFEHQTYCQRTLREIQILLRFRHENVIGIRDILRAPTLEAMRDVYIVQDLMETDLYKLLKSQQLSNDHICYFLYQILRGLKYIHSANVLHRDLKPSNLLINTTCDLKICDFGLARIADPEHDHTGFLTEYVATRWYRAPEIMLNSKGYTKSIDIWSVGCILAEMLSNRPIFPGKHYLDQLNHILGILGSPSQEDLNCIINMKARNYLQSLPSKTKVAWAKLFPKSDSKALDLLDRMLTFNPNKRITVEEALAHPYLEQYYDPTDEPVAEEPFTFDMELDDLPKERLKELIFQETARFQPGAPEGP

Chain of Krueppel-like factor 4 (Mus musculus), Q60793 S136A (Q60793 whole entry S136A): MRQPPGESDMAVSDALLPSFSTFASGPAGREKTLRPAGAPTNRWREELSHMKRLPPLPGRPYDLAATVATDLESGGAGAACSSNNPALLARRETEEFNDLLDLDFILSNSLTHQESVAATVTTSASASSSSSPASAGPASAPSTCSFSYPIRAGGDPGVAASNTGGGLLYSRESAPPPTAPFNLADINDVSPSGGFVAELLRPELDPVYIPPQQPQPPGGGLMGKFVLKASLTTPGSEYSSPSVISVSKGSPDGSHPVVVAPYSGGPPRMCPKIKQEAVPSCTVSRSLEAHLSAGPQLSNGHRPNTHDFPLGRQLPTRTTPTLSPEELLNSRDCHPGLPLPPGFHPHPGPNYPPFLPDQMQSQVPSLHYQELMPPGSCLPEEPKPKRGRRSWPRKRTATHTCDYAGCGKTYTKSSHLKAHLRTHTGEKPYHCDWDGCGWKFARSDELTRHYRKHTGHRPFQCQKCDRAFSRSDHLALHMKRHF
Chain of Krueppel-like factor 4 (Mus musculus), Q60793 L89A;R91A;R92A (Q60793 whole entry L89A/R91A/R92A): as the sequence (Q60793 whole entry S136A) above, with L89A, R91A, R92A, A136S counted along it
Chain of Krueppel-like factor 4 (Mus musculus), Q60793 S132A (Q60793 whole entry S132A): as the sequence (Q60793 whole entry S136A) above, with S132A, A136S counted along it
Chain of Krueppel-like factor 4 (Mus musculus), Q60793 S140A (Q60793 whole entry S140A): as the sequence (Q60793 whole entry S136A) above, with A136S, S140A counted along it
Chain of Krueppel-like factor 4 (Mus musculus), Q60793 L89A;R91A;R92A;L101A;L103A (Q60793 whole entry L89A/R91A/R92A/L101A/L103A): as the sequence (Q60793 whole entry S136A) above, with L89A, R91A, R92A, L101A, L103A, A136S counted along it
Chain of Krueppel-like factor 4 (Mus musculus), Q60793 L101A;L103A (Q60793 whole entry L101A/L103A): as the sequence (Q60793 whole entry S136A) above, with L101A, L103A, A136S counted along it

effect of a mutation on the interaction | Substance
disrupting interaction strength | Krueppel-like factor 4 (Mus musculus), Q60793 L89A;R91A;R92A
disrupting interaction strength | Krueppel-like factor 4 (Mus musculus), Q60793 L89A;R91A;R92A;L101A;L103A
decreasing interaction strength | Krueppel-like factor 4 (Mus musculus), Q60793 L101A;L103A

These substances were tested against fbw1b_human FBXW11 (UniProt Q9UKB1).
Chain of fbw1b_human FBXW11 (Q9UKB1 whole entry): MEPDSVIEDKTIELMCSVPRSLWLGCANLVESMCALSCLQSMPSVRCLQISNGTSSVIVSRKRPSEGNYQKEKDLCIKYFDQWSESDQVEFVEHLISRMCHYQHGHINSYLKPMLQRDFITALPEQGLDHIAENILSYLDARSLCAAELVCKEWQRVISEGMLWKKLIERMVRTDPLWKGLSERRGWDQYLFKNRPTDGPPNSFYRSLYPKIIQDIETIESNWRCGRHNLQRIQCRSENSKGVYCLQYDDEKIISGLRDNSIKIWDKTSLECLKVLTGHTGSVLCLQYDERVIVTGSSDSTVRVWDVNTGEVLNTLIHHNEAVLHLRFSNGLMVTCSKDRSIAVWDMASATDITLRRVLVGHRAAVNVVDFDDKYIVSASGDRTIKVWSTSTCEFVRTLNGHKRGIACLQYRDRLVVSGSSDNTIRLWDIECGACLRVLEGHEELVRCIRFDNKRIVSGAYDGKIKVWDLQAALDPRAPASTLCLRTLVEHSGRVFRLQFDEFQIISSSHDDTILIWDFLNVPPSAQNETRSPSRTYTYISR

effect of a mutation on the interaction | Substance
decreasing interaction strength | Krueppel-like factor 4 (Mus musculus), Q60793 S132A
decreasing interaction strength | Krueppel-like factor 4 (Mus musculus), Q60793 S136A
decreasing interaction strength | Krueppel-like factor 4 (Mus musculus), Q60793 S140A
